Experimental data: patent US20040157248

Legend:
[1] = biological target: RecA wild-type (Escherichia coli) (UniProt P0A7G6); details: salt titration midpoint by DNA-dependent ATPase, no SSB, 37 C; value is NaCl at half-maximal ATPase
[2] = biological target: RecAΔC17 (Escherichia coli) (UniProt P0A7G6); details: salt titration midpoint by DNA-dependent ATPase, no SSB, 37 C; value is NaCl at half-maximal ATPase
[3] = biological target: RecA E38K/ΔC17 (Escherichia coli) (UniProt P0A7G6); details: apparent kcat of ATP hydrolysis with SSB-prebound poly(dT); no lag; higher with SSB than without
[4] = biological target: RecA wild-type (Escherichia coli) (UniProt P0A7G6); details: ATPase rate without SSB relative to with SSB, 10 mM Mg
[5] = biological target: RecAΔC17 (Escherichia coli) (UniProt P0A7G6); details: ATPase rate without SSB relative to with SSB, 10 mM Mg

Substance	K half [1] [mM NaCl]	K half [2] [mM NaCl]	activity [3] [min⁻¹]	relative ATPase rate [4] [%]	relative ATPase rate [5] [%]
poly(dT)	750	700	> 20		
M13mp8 circular ssDNA				30	84
